Substitutions are numbered along the chain they refer to.
B1: rituximab Fc variant RTX-PS101 (antibody, human IgG1, kappa)
heavy: QVQLQQPGAELVKPGASVKMSCKASGYTFTSYNMHWVKQTPGRGLEWIGAIYPGNGDTSYNQKFKGKATLTADKSSSTAYMQLSSLTSEDSAVYYCARSTYYGGDWYFNVWGAGTTVTVSAASTKGPSVFPLAPSSKSTSGGTAALGCLVKDYFPEPVTVSWNSGALTSGVHTFPAVLQSSGLYSLSSVVTVPSSSLGTQTYICNVNHKPSNTKVDKKAEPKSCDKTHTCPPCPAPELLGGPSVFLLPPKIKDTLMISRTPEVTCVVVDVSHEDPEVKFNWYVDGVEVHNAKTKPPEEQYNSTLRVVSILTVLHQDWLNGKEYKCKVSNKALPLPEEKTISKQKGQPREPQVYTLPPSRDELTKNQVSLTCLVKGFYPSDIAVEWESNGQQENNYKTTPPVLDSDGSFFLYSKLTVDKSRWQQGNVFSCSVMHEALHNHYTQKSLSLSPGK
light: QIVLSQSPAILSASPGEKVTMTCRASSSVSYIHWFQQKPGSSPKPWIYATSNLASGVPVRFSGSGSGTSYSLTISRVEAEDAATYYCQQWTSNPPTFGGGTKLEIKRTVAAPSVFIFPPSDEQLKSGTASVVCLLNNFYPREAKVQWKVDNALQSGNSQESVTEQDSKDSTYSLSSTLTLSKADYEKHKVYACEVTHQGLSSPVTKSFNRGEC
B2: rituximab Fc variant RTX-PS107 (antibody, human IgG1, kappa)
heavy: B1 heavy with D360G
light: B1 light
B3: rituximab Fc variant RTX-PS102 (antibody)
heavy: B1 heavy with H228R, V307I
light: B1 light

Tests used:
FcγRIIIa-158F-GST = biological target: T1, FcγRIIIa-158F-GST (human, UniProt P08637 17-208); experiment: ELISA, FcγRIIIa-158F-GST coated at 4 µg/ml, antibody titrated, HRP-Protein L detection
T1 construct: not shown: GST (glutathione S-transferase) fusion partner
Description: After washing, antibody reaction was performed for 1 hour at room temperature, and then washed using 50 μl of HRP-Protein L (GenScript, M00098). 50 μl of a 1-Step Ultra TMB-ELISA substrate solution (Thermo Fisher Scientific, 34028) was added to develop color, and then added with 50 μl each of 2 M H₂SO₄ to terminate the reaction. Absorbance was measured using an Epoch microplate spectrophotometer (BioTek).

[1] = biological target: T2, cynomolgus monkey FcγRIII-GST (cynomolgus monkey, UniProt Q8SPW2 17-208); experiment: ELISA, cynomolgus monkey FcγRIII-GST coated at 4 µg/ml, antibody titrated, HRP-Protein L detection
T2 construct: GST fusion form made in Expi293F cells, purified on glutathione resin; not shown: GST fusion partner
Description: Specifically, 50 μl of mouse FcγRIV-GST and cynomolgus monkey FcγRIII-GST diluted to 4 μg/ml in 0.05 M Na₂CO₃ pH 9.6 were immobilized on a flat bottom polystyrene high bind 96-well plate (Costar, 3590) for 16 hours at 4° C., respectively, and then blocked with 100 μl of 4% skim milk (GenomicBase, SKI400) at room temperature for 2 hours. […] After washing, antibody reaction was performed for 1 hour at room temperature, and then washed using 50 μl of HRP-Protein L (GenScript, M00098). 50 μl of a 1-Step Ultra TMB-ELISA substrate solution (Thermo Fisher Scientific, 34028) was added to develop color, and then added with 50 μl each of 2 M H₂SO₄ to terminate the reaction. Absorbance was measured using an Epoch microplate spectrophotometer (BioTek).

T2 sequence (Q8SPW2 17-208): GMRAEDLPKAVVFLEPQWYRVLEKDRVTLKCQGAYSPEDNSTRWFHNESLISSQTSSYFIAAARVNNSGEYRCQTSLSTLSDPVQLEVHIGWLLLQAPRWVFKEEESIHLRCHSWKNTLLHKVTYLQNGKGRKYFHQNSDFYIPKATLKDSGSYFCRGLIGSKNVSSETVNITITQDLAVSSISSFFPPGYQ
T1 sequence (P08637 17-208): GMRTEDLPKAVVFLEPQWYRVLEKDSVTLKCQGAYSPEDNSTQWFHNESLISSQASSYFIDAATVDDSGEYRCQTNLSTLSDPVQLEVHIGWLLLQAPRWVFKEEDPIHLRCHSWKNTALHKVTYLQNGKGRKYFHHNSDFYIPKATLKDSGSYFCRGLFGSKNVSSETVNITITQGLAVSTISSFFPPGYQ

Row | Binder | EC50 (read off the curve) (FcγRIIIa-158F-GST) [nM] | EC50 (read off the curve) [1] [nM]
1 | B1 | ~3 | ~3
2 | B2 | ~3 | ~3
3 | B3 |  | ~3
